Measured values: IntAct's records for PubMed 18494562

B1: Raf homolog serine/threonine-protein kinase Raf (Drosophila melanogaster (Fruit fly)), P11346 (parent)
chain: MSSESSTEGDSDLYDPLAEELHNVQLVKHVTRENIDALNAKFANLQEPPAMYLIEYQELTSKLHELEAKEQELMERLNSQDQQEDSSLVERFKEQPHYQNQTQILQQQRQLARVHHGNDLTDSLGSQPGSQCGTLTRQPKILLRAHLPNQQRTSVEVISGVRLCDALMKALKLRQLTPDMCEVSTTHSGRHIIPWHTDIGTLHVEEIFVRLLDKFPIRTHIKHQIIRKTFFSLVFCEGCRRLLFTGFYCSQCNFRFHQRCANRVPMLCQPFPMDSYYQLLLAENPDNGVGFPGRGTAVRFNMSSRSRSRRCSSSGSSSSSKPPSSSSGNHRQGRPPRISQDDRSNSAPNVCINNIRSVTSEVQRSLIMQARPPLPHPCTDHSNSTQASPTSTLKHNRPRARSADESNKNLLLRDAKSSEENWNILAEEILIGPRIGSGSFGTVYRAHWHGPVAVKTLNVKTPSPAQLQAFKNEVAMLKKTRHCNILLFMGCVSKPSLAIVTQWCEGSSLYKHVHVSETKFKLNTLIDIGRQVAQGMDYLHAKNIIHRDLKSNNIFLHEDLSVKIGDFGLATAKTRWSGEKQANQPTGSILWMAPEVIRMQELNPYSFQSDVYAFGIVMYELLAECLPYGHISNKDQILFMVGRGLLRPDMSQVRSDAPQALKRLAEDCIKYTPKDRPLFRPLLNMLENMLRTLPKIHRSASEPNLTQSQLQNDEFLYLPSPKTPVNFNNFQFFGSAGNI
partner: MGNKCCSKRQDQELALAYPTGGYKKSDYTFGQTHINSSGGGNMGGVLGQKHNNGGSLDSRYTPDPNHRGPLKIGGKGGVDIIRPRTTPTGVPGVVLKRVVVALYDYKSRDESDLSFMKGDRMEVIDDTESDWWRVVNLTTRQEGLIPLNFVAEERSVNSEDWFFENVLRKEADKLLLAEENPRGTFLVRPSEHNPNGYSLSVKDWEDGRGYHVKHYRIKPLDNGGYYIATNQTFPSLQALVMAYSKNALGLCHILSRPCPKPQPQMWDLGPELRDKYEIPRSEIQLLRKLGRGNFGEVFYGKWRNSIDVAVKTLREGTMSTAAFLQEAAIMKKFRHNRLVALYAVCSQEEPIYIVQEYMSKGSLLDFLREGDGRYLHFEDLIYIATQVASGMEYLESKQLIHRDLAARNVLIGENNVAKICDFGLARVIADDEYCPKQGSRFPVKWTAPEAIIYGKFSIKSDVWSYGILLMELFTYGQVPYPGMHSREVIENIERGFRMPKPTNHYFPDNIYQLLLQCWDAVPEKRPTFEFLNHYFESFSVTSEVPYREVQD
B2: Raf homolog serine/threonine-protein kinase Raf (Drosophila melanogaster (Fruit fly)), P11346 (parent)
chain: B1 chain

Variants of: B1
Conditions: with src64_drome Src64B
In the case of Y510F, the “effect of a mutation on the interaction” value is reported as “disrupting interaction”.

Variants of: B2
Conditions: with dsor1_drome Dsor1, Q24324
Sequence of dsor1_drome Dsor1, Q24324 (Q24324 whole entry): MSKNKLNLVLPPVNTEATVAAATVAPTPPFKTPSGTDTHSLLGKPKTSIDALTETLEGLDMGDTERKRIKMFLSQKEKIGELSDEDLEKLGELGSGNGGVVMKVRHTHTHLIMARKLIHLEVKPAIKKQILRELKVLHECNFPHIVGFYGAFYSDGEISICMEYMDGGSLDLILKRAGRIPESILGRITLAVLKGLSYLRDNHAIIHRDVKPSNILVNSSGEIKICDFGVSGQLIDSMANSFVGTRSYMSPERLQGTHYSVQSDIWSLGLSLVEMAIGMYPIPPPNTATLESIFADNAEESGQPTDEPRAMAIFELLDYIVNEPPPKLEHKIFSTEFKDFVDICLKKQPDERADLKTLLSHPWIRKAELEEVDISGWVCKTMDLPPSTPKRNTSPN
Y510E was tested, and the “effect of a mutation on the interaction” value was “increasing interaction”.
